Data on 139 substances can be found in the supplement of paper PMC12042874.

± gives the uncertainty stated by the source.

The nature of the series: amyloid nucleation score (Sup35N fusion, yeast selection) (log enrichment); library NNK1; higher = more nucleation; inactive = no reads after selection. Summed up: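 The nucleation score, computed with DiMSum, is the log enrichment of output over input reads, centred on the mode score of non-aggregating sequences. Sequences with under 100 input reads were dropped. Reads were generated by Illumina sequencing of plasmid inserts from psi-negative yeast with Sup35N fused to peptides of 20 random codons, induced with 100 μM copper sulfate for 24 hours and grown 7 days at 30°C on medium lacking adenine and uracil.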

YVCGGWCVRVVRQVGYVNL: the amyloid nucleation score is 0.421 ± 0.55.

HSVNACLTGRKGAPLRDKPG came in with an amyloid nucleation score of 0.166 ± 0.78. On to DPICFYYYFLVN, for which the amyloid nucleation score was -2.01 ± 1.5. Under NNIFGLSIYKYCQGRYCNCS stands 8.226 ± 0.055. Under CRLGNEKGRLKSWQNRSNIC stands -0.22 ± 0.59. The substance SVSYTPVLHCCYCIMKWNPW had an amyloid nucleation score of 5.19 ± 0.062. Turning to LYYCSFRYMIKTRNLNVTFL, the amyloid nucleation score came to 6.4 ± 0.084. MLYKIRDQIYIRHGSFEG: the amyloid nucleation score is 0.224 ± 0.28. The result for DSGWRWCNRSTSVGNVNVMR reads 0.171 ± 0.43; that for TLVKVRSELYSGRDAYELVS, 0.035 ± 0.26. The result for DTNTSIMHTIPRVGLNGCRR reads 10.02 ± 0.051. Under NRACRMMQWS stands -0.441 ± 1.2; under NCVTELYDLRGILVRNLCSG, -0.044 ± 0.21. Substance YGHLTAGGCWSGQTNNARLG had an amyloid nucleation score of -0.488 ± 0.9.

As to CLYAIKLCM, the amyloid nucleation score is 6.82 ± 0.043. As to GSHSGVFRVIKYQILFEVGM, the amyloid nucleation score entry was “inactive”. Take RLFLKPAQWPNH: the amyloid nucleation score worked out at 0.562 ± 0.67. For the substance PSGWTFSRGLSCDNVSRLSS, the amyloid nucleation score stood at 1.05 ± 0.61. Under NINPHLLTISFHWLRPQLAP stands -0.745 ± 1.7; under IKIRAFDTSSCSQFRVRPRV, 4.63 ± 0.095; under IFRSFLDG, -0.437 ± 0.3. Take DRFNCKCFVLSKVLCWYGVG: the amyloid nucleation score was found to be 0.851 ± 0.79. The result for WGICDLKVCVQPCPSSNARI reads -0.059 ± 0.57. Consider TVRQTGRVPMTGLIMFW, for which the amyloid nucleation score was 1.95 ± 0.19.

NARWV returned an amyloid nucleation score of 0.613 ± 0.38.

With HYVVG, the amyloid nucleation score is -0.784 ± 0.74.

MIVRSVILNDCWAGGACLHF registered an amyloid nucleation score of 6.936 ± 0.047. In turn, NLKCF showed an amyloid nucleation score of 0.905 ± 0.47. On to YHSWECLHRTANIIWEYFRD, for which the amyloid nucleation score is -0.019 ± 0.81.

As for TTIAIRVLFQIVMVVSESRS, the amyloid nucleation score is -0.247 ± 0.24.

The substance SSSSYIYCYFFPQSMVMVFS gave an amyloid nucleation score of 3.66 ± 0.1. Under SMRWVDL stands 1.19 ± 0.97.

The substance VVTSLIL registered an amyloid nucleation score of -0.999 ± 1.2. LWLRGLVSFRQSHGRTGKSS registered an amyloid nucleation score of -0.126 ± 0.33. The result for TLTVRRCSCQVQWGLRMFHL reads -0.653 ± 1.4. YVHQRGNNTSAMLAWVLPRH gave an amyloid nucleation score of -0.766 ± 0.5. Turning to FSACLSNIYD, the amyloid nucleation score entry is “inactive”.

LRMKANYVTSAFNRCVLLLG returned an amyloid nucleation score of 0.425 ± 0.41. Under LAITDKPNANARRPPTPVLY stands 0.623 ± 0.51; under IWIMWGYRSLDTMLHS, 0.047 ± 0.77. The result for KSRWHMLLNS reads 0.051 ± 0.72; that for RYCHVLIVIAQANQSFKDVQ, 7.725 ± 0.056. The result for GCSLLHLRVWYLSDHIIMRS reads 0.834 ± 0.36. Consider TSNLHTHGSVFDFWG, for which the amyloid nucleation score came out at 0.732 ± 0.55. Substance LIARMWANFRRGVSITARF returned an amyloid nucleation score of 0.87 ± 0.87. Under AWLNRSYRMLHPMWGVCMDM stands 1.26 ± 0.85; under LRSGKAQYTEVVLLRIRPGF, -1.4 ± 2.7; under FLSSCDGGLIGMHGTGFTAQ, 0.426 ± 0.45. On to YTMRGASRSTTDLLKIMIYM, for which the amyloid nucleation score was -2.83 ± 2.4. Under SALLEQRLSSGLDVAISLRI stands -0.368 ± 0.9; under LSLNIYCMRS, 7.155 ± 0.045. On to ILQSFSTVEHFEDLL, for which the amyloid nucleation score was 0.58 ± 1.2. FCLSMVVDWVGR: the amyloid nucleation score was -0.342 ± 0.31.

ATCCNSWIAF showed an amyloid nucleation score of 7.035 ± 0.054. Under SHGAGYRFTEFIHHSGGLPN stands 0.498 ± 0.39.

Substance RDAFYRGRTRFNQRRYMYRR came in with an amyloid nucleation score of -0.335 ± 0.53. YSLSNVEGYYTYYYRT came in with an amyloid nucleation score of -0.071 ± 0.28. Turning to ICSNVLFVLILEKEASFGCY, the amyloid nucleation score was 4.21 ± 0.051. The result for QFRICVAPEFFGRKSLRASD reads 0.445 ± 1.2; that for SDFRMTGLLTWYRSI, -0.228 ± 0.51. Under CTGSCVRRVCGGFIEADIRY stands -0.28 ± 0.41; under VRPNGVYSFRWTYGFPIQRA, 0.321 ± 0.6. The result for TGLSCCCMNISRNGREMVPR reads 6.281 ± 0.058; that for SLDLMCGHQPRSCMVLDSRV, 0.983 ± 0.97; that for VCAEWGAVAPGIGKEYQQRM, 2.04 ± 0.32. In turn, RCCIIDLFS yielded an amyloid nucleation score of 4.87 ± 0.066. Under IIGRLNLKMISGLI stands 2.15 ± 0.58; under VMYHGVLYLVNKKVRAWVVG, -0.511 ± 0.76. The substance SVASGVMFRAYCFWWAARKV gave an amyloid nucleation score of 0.27 ± 0.47. ANSVQG: the amyloid nucleation score amounted to 0.9 ± 0.73. Substance IMCPMWWLVLYNSSVQRYAE yielded an amyloid nucleation score of 6.11 ± 0.07. Under TVVHPFSYA stands 0.487 ± 0.49; under FKRLNRFYRSLAIMTSTSHL, -0.149 ± 0.69. The result for VTCRCYSFSLMAGAMTRRSG reads 0.188 ± 0.75.

The substance QGRGMDNVIYVEVRMRDCRR returned an amyloid nucleation score of 2.04 ± 0.24. Under LKDCSCVERQD stands -0.072 ± 0.38; under VALLTNWFTGPQPLTMFTRV, 1.14 ± 0.9; under AHPSNSYGRNNGVLASHRWD, -0.847 ± 0.41. In the case of CYAFLDWAYVSEG, the amyloid nucleation score was 0.114 ± 0.28. The result for WVGQVLGREENCASASSFSE reads -1.89 ± 2.7. The substance RFLGSWCSIYIGRCVMFDRG yielded an amyloid nucleation score of 1.13 ± 0.28. As for SVTHKTKCRLQFGVEMGQN, the amyloid nucleation score came to 1.13 ± 0.8. Under ALLHVNLIVGNYTSGG stands 3.28 ± 0.13; under PLIITTMFGASVRESFHVVL, 1.21 ± 0.4; under KALVADC, 0.001 ± 0.34. Under NVYDMFIKFGVGVASSVSAC stands -1.48 ± 1.9.

VGTFTTELKVVGRIDIVWAR gave an amyloid nucleation score of 0.723 ± 0.46. Consider CRSVVGVGSCRTGPEEGVYP, for which the amyloid nucleation score was -0.106 ± 1.7. Under IKIIAFFWLCSYHGWISWKS stands -1.5 ± 1.1; under RHGVRYSKLELINTREFYNE, -0.246 ± 0.9.

The substance LDCDSSLGRN came in with an amyloid nucleation score of 0.722 ± 0.39. Take TLSKYQS: the amyloid nucleation score came to 0.221 ± 0.53. Under DPADAPMITRNVGTWAKQVP stands 0.324 ± 0.97.

As for SVLFNAAFFKFQNRF, the amyloid nucleation score amounted to 0.5 ± 0.6. Under CFFRTDGLDTPYGAYLVRSF stands 2.31 ± 0.2; under SSGPVFYKLPRLHCVGSHRH, 0.603 ± 0.5.

In turn, TCEESEDDGGIMAVPDWM registered an amyloid nucleation score of -0.42 ± 0.57. Under YMDVTGDVK stands -0.067 ± 0.85; under NIINLHYKYLVADVWGLKMF, -0.008 ± 0.93; under DLILPRRLSYGYLPVLEGPS, -0.222 ± 0.76.

On to SMVTQLRSDNLGHWANSESR, for which the amyloid nucleation score turned out to be 0.108 ± 0.34. Turning to QLQTSQRV, the amyloid nucleation score entry was “inactive”. GNKPLVVHGSGGICKLCE returned an amyloid nucleation score of -0.147 ± 0.38.

With RPFLIIKLLGVGLSVKPNCG, the amyloid nucleation score is -0.158 ± 0.64. The result for GSTFVGAIKQPIVCWIESGN reads -1.32 ± 1.2; that for AQVNLIPNLRETLYDPAISR, 0.665 ± 0.55; that for CSTRGFGGD, -0.921 ± 1.1. The substance GEFESSNVRSACSGGYFRAA came in with an amyloid nucleation score of -0.186 ± 0.88.

As to YCVTSMVRRLVKMLYDCRGV, the amyloid nucleation score result was “inactive”. Under LCALSEVLVLCDSY stands 0.29 ± 0.96.

The substance VRFSLHDRGRQTRTCYSPWA came in with an amyloid nucleation score of 0.006 ± 0.36. The substance IIQCNVTYAS yielded an amyloid nucleation score of 3.63 ± 0.12. Under SSSGMVDSVSYDLRGRVGLR stands 0.29 ± 0.3; under CLFWDSCYRKLLTIYDNM, -0.941 ± 0.63; under TLDFMLIKLSERLHLRC, 0.589 ± 0.3. Under ANTLRKMNLLSELVLNLLTG stands 3.3 ± 0.14; under TVSSLSWDGMPLLPVTLIFS, -1.01 ± 1.2. The result for LDSTLSLQ reads 0.071 ± 0.3; that for FRYYRF, 0.522 ± 0.45; that for MRLMVGYRRCFASLVKNVCT, -0.963 ± 1.8. Regarding FRMRHQERMAGTPVGMGLYC, the amyloid nucleation score was -0.327 ± 0.69. Under IVAVDFGLFRMRTIPRAAVS stands -0.144 ± 1.6. As for YLAWNM, the amyloid nucleation score came out at 1.8 ± 0.34. INLGFLWTCARDAVFLYDLS yielded an amyloid nucleation score of 2.31 ± 0.17. Under VLRFGRWSYFVGVLPEKKRQ stands -1.18 ± 2.4. The result for FTDTEYLQGLDIGVGMERLY reads -0.218 ± 0.65.

As to MRRHLGHLTLESGNHGCLQA, the amyloid nucleation score entry is “inactive”.

On to IIFNYPNPIYLNAKEVMLYI, for which the amyloid nucleation score turned out to be 6.52 ± 0.067.

The substance TGNGRDVLHSSALKVPNRR registered an amyloid nucleation score of 0.715 ± 0.43. Under DFGFLF stands 0.851 ± 0.37; under CRGNDKVLPKIGATNCWLST, “inactive”. Under KFSNWTDV stands -0.164 ± 1.1.

Substance NFGVSSNLCGGIWIYW yielded an amyloid nucleation score of 4.74 ± 0.074. Under KGRSCLGRLRLVGQMRPKYN stands 0.366 ± 0.76; under QIVCGSMWMLDKI, -0.297 ± 0.49; under YSRISKRVSRKGQSRNCHSG, -0.413 ± 0.52. Under MWGPHCTRSTTTLVPRARKG stands 0.468 ± 0.46; under LLCTYISTEAPIVTFLRLTY, -0.667 ± 0.44. Under QGSDSSNEATTAPLCRLRIW stands 1.11 ± 0.94.
